# From patent CN113045656A (TAIZHOU ENZE MEDICAL CT GROUP, dated 2021)
# T1: G5-pep2(299-319aa) 抗原肽 (human)
# T1 peptide: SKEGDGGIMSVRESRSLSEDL
# Target: T1, G5-pep2(299-319aa) 抗原肽
# Experiment: indirect ELISA, peptide coated at 2 ug/ml, purified antibody in 2-fold dilutions from 1:200, logistic fit
binder,measurement,value
"抗HLA-G异构体分子HLA-G5及HLA-G6的单克隆抗体(9Y5G6) (antibody, V domains shown, only the CDRs are; also called 抗HLA-G单克隆抗体(9Y5G6)) VH: VQLQESGGGLVQPGGSRKLSCAASGFTFRDFGMAWVRQVPGMGPEWVASISNLARIIDYADTVTGRFTISRENAKNTLYLEMNSLRSEDSAIYYCARVTTIVPDYWGQGTSLTVSS VL: DIVITQDELSLPVSLGDHTSISCRSSQSLLHSNGHTYLHWYLQKPGQSPKLLIYKVSNRFSGVPDRFSGSGSGTDFTLKISRVEAEDLGVYFCSQSTHVPWTFGGGTKVEIKR",Ka,1.5e+11 M⁻¹
same,"X0 (midpoint of the logistic fit, antibody dilution factor)",1.56e+06 dilution fold
